Consider 2 molecules from patent US20160145325A1 (AGROSAVFE N V, published 2016).

In this assay the target is T1, potato lectin (Solanum Tuberosum Lectin, Vector labs, cat#: L-1160) (Solanum tuberosum (potato), UniProt Q9S8M0 23-323).
T1 construct: Bought glycoprotein coated on ELISA wells as an unrelated control compound
T1 sequence: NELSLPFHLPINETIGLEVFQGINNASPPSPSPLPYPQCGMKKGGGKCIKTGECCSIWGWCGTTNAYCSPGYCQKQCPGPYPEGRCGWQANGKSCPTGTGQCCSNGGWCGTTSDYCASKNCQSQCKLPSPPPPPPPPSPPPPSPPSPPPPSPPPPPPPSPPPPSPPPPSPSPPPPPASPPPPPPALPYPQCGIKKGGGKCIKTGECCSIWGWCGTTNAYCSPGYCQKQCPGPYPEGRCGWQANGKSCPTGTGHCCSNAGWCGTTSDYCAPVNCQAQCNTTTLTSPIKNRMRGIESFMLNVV
Kind of assay: ELISA, purified VHH on wells coated with potato lectin, OD 405 nm.

B1: anti-GlcCer VHH 56F11 (VHH)
VHH: QVQLQESGGGLVQSGGSLRLSCVHSKTTFTRNAMGWYRQALGKERELVATITSGGTTNYADSVKGRFTISMDSAKNTVYLQMNSLKPEDTAVYYCNVNTRRIFGGTVREYWGQGTQVTVSS
notes: Llama VHH raised against fungal glucosylceramide, made in E. coli and purified through its hexahistidine tag; Tested as purified VHH at 1 ug/ml; not shown: C-terminal (His)6 and c-myc peptide tags coded by vector pASF20
Consider B1, for which the binding result is recorded as “no binding (tested: 1 µg/ml)”.

B2: anti-GlcCer VHH 41D01 (VHH)
VHH: QVQLQESGGGLVQAGGSLRLSCAASGRTFSRYGMGWFRQLPGKQRELVTSITRGGTTTYADSVKGRFTISRDNAKNTVYLQMNSLKPEDTAVYYCNARSIWRDYWGQGTQVTVSS
notes: Llama VHH raised against fungal glucosylceramide, made in E. coli and purified through its hexahistidine tag; Tested as purified VHH at 0.1 ug/ml; also called GlcCer-specific VHH 41D01; not shown: C-terminal (His)6 and c-myc peptide tags coded by vector pASF20
In the case of B2, the binding result is on record as “no binding (tested: 0.1 µg/ml)”.
